Experiment [1] deals with 3xFLAG-TMEM24(76-260) (human) (UniProt O14523). Nature of the experiment: native MS.
The target of experiment [2] is TMEM24 SMP domain (residues 76 to 260) (human) (UniProt O14523). Briefly: SEC. For orientation: SEC sorts molecules by how far they enter the pores of the column.

The term stoichiometry N denotes a count of units in the complex or per binding partner. As to “3xFLAG-TMEM24(76-260) (from UniProt O14523 76-260) (domain or fragment)”, the stoichiometry N in experiment [1] was 2.

“TMEM24 SMP domain (residues 76 to 260) (from UniProt O14523 76-260) (domain or fragment)”: the stoichiometry N in experiment [2] came out at 2.
